Common to all, as to experiment: co-IP; 293T cells co-transfected; 400 ug of cell lysate on anti-HA magnetic beads with RNaseA (50 ug/mL), 2 h at 4 C; co-IP buffer 50 mM Tris-Cl pH 7.4, 1% Nonidet-P40, 10% glycerol, 150 mM NaCl; immunoblot with anti-HA and anti-V5 or anti-Flag; band intensities normalised to the immunoprecipitated protein, full-length protein set to 100%
In general terms: Immunoblotting shows a protein as a band on a membrane.

For experiment [1], the target named is APOBEC3G with C-terminal triple HA tag (pcDNA3.1-APOBEC3G-HA) (human) (UniProt Q9HC16).
The target of experiment [2] is APOBEC3G N-terminal domain, HA-tagged (pcDNA3.1 A3G NTD-HA) (human).
APOBEC3G N-terminal domain, HA-tagged (pcDNA3.1 A3G NTD-HA) (human), sequence (Q9HC16 whole entry, the tested form may be a part): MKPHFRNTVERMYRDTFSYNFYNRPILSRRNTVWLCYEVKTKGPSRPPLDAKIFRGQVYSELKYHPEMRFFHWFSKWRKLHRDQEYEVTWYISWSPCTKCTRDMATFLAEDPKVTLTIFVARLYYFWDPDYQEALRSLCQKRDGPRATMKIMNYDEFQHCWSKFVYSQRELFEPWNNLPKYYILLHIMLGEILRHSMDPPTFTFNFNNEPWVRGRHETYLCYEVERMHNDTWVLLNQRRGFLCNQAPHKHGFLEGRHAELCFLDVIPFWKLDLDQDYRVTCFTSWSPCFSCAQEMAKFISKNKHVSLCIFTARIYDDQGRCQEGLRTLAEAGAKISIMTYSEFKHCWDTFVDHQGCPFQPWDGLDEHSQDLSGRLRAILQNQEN
Experiment [3] concerns the target APOBEC3F-HA (pcDNA3.1 A3F-HA) (human) (UniProt Q8IUX4).
Experiment [4] concerns the target APOBEC3F N-terminal domain, HA-tagged (pcDNA3.1 A3F NTD-HA) (human).

APOBEC3F N-terminal domain, HA-tagged (pcDNA3.1 A3F NTD-HA) (human), sequence (Q8IUX4 whole entry, the tested form may be a part): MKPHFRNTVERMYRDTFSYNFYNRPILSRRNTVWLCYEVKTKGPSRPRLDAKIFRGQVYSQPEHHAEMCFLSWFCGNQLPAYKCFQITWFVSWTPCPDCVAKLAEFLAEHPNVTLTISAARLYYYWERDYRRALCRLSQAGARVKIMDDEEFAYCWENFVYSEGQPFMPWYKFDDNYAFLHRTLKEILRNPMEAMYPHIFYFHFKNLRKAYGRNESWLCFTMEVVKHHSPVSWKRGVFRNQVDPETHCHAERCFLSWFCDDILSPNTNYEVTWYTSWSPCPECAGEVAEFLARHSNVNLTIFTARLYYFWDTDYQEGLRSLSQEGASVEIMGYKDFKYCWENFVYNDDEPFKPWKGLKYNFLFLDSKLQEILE

Regarding “APOBEC3F C-terminal domain, Flag-tagged (pcDNA3.1 A3F CTD-Flag) (domain or fragment)”, the fold less immunoprecipitated than full-length A3F and A3F NTD in experiment [1] came out at 17 fold.
For “APOBEC3F N-terminal domain, Flag-tagged (pcDNA3.1 A3F NTD-Flag) (domain or fragment)”, the fold more immunoprecipitated than full-length A3F in experiment [2] stood at 7 fold.
For the substance “APOBEC3G C-terminal domain, Flag-tagged (A3G CTD-Flag) (domain or fragment)”, the fold by which full-length A3G in the co-IP exceeded this construct in experiment [3] is 42 fold.
As for “APOBEC3G N-terminal domain, Flag-tagged (pcDNA3.1 A3G NTD-Flag) (domain or fragment)”, the fold less in the co-IP than the full-length protein in experiment [4] came out at 1000 fold. Besides, the fold by which full-length A3G in the co-IP exceeded this construct in experiment [3] was 6 fold.

For the origin of these results see paper PMC11784016.
